Assay results as given in US20150353645A1.

Legend:
[1] = target: MUC1 peptide-biotin (cat#353951, American Peptide Company); assay: ELISA at 2 ug/ml mAb (IgM), MUC1 peptide-biotin on NeutrAvidin; PBS background 0.12
[2] = target: MUC1 peptide-biotin (cat#353951, American Peptide Company); assay: ELISA at 2 ug/ml mAb, MUC1 peptide-biotin on NeutrAvidin; PBS background 0.08

Row | ELISA signal (unit not given) [1] | ELISA signal (unit not given) [2] | Binder
1 | 0.09 |  | human anti-GD2 monoclonal antibody 2E12 (antibody, human IgM, V domains shown) VH: QVQLLESGAEVKKPGASVKVSCKASGYTFTSYAMHWVRQAPGQRLEWMGWINAGNGNTIYSQKFQARVTITRDTSASTAYMELSSLRSEDTAVYYCARWVGGVASYFDYWGQGTLVTVSS VL: EIVLTQSPLSLSVTPGEPASISCRSSQSLLHRNGYNYFDWYLQQPGQSPQLLIYLGSNRASGVPDRFSGSGSGTDFTLKISRVEAEDVGVYYCMQALQTPYTFGQGTKLEIK
2 |  | 0.08 | human anti-GD2 monoclonal antibody 31F9 (antibody, human IgG1, V domains shown) VH: QVQLLESGAEVKKPGASVKVSCEASGYTFTSSDINWVRQATGQGLEWMGWMNPNSGNTGYAQKFQGRVTMTRNTSISTAYMELSSLRSEDTAVYYCARERPRRRGGGFDIWGQGTMVTVSS VL: DIRMTQSPSSLSASVGDRVTITCRASQGISNYLAWYQQKPGKVPKFLIYAASTLQSGVPSRFSGSGSGTDFTLTISSLQPEDVATYYCQKYNSAPWTFGQGTKVEIK
